In experiment [1] the target is T1, r murine EphA4 (mouse, UniProt Q03137).
T1 construct: recombinant Fc fusion (R&D Systems); also called rmuEphA4-Fc; mEphA4
Kind of experiment: activity ELISA, IgG on coated antigen.

The target in experiment [2] is T2, r murine EphA7 (mouse, UniProt Q61772).
T2 construct: recombinant Fc fusion (R&D Systems); also called rmuEphA7-Fc; mEphA7
T2 sequence (receptor-Fc fusion, looked up): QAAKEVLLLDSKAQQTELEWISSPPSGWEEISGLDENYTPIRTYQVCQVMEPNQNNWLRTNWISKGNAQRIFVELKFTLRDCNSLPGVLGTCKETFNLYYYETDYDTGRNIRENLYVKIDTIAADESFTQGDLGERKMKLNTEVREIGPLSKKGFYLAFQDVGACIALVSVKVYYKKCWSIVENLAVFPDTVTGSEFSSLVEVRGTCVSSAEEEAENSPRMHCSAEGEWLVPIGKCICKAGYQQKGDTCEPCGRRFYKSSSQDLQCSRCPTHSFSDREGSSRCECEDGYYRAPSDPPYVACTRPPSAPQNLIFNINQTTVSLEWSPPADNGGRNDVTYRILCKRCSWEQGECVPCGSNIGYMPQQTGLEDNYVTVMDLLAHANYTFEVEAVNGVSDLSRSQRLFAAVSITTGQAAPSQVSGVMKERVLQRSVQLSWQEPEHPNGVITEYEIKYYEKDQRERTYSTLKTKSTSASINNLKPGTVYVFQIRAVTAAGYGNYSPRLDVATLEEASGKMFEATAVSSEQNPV
Nature of the experiment: activity ELISA, IgG on coated antigen. (In general: ELISA stands for enzyme-linked immunosorbent assay.)

Experiment [3] addresses T3, mEphA4 (mouse, UniProt Q03137).
T3 construct: part of an Fc fusion; also called rmuEphA4-Fc
Kind of experiment: ELISA, receptor coated on the plate, purified IgG, anti-human kappa-HRP.

In experiment [4] the target is T4, mEphA7 (mouse, UniProt Q61772).
T4 construct: part of an Fc fusion; also called rmuEphA7-Fc
T4 sequence (receptor-Fc fusion, looked up): T2 sequence (receptor-Fc fusion, looked up)
Described as above.

In experiment [5] the target is T5, r rat EphA5 (rat, UniProt P54757).
T5 construct: part of an Fc fusion; also called rEphA5; rratEphA5-Fc
T5 sequence (P54757 27-575 limits assumed): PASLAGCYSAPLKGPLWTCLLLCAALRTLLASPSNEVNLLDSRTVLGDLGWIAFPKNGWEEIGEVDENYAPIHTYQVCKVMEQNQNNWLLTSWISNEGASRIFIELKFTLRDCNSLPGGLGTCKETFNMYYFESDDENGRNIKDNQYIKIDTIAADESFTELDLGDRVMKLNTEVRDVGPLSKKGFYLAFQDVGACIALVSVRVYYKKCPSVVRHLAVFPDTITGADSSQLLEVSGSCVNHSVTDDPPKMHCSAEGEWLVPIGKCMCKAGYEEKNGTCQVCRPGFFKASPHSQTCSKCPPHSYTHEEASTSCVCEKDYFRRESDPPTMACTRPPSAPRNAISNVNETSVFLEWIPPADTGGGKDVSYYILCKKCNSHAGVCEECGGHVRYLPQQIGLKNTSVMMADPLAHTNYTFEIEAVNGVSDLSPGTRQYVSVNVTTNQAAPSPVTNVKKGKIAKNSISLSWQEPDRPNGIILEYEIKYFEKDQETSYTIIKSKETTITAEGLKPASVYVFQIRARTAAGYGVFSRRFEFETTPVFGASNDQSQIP
Nature of the experiment: Activity ELISA, receptor coated on the plate, purified IgG, anti-human kappa-HRP. As for the experimental part:
(§1) Secondary screening of IgG constructs of affinity optimized combinatorial variants with additional EphA receptors: With purified IgG constructs of the nine combinatorial variants, additional secondary screening assays were performed using the Activity ELISA (see above) and recombinant EphA receptor proteins. More precisely, Nunc Maxisorp plates were coated with the following rEphA proteins: rhuEphAl-Fc; 0.5 μg/well, rmuEphA2-Fc; 0.5 μg/well, rmuEphA3-Fc: 0.1 μg/well, rmuEphA4-Fc; 0.1 μg/well, rratEphA5-Fc; 0.5 μg/well, rmuEphA6-Fc; 0.5 μg/well, rmuEphA7-Fc; 0.1 μg/well, rEphA8; 0.2 μg/well (all R&D Systems), rhuEphA2-Fc; 0.5 μg/well, and rhuEphA4-His; 0.1 μg/well (both produced at MedImmune, Inc.). Plates were blocked with 3% BSA+0.1% Tween20 for 2 h. […] Incubation with a goat anti-human kappa horseradish peroxydase (HRP) conjugate then followed. HRP activity was detected with TMB substrate and the reaction quenched with 0.2 M H₂SO₄. Plates were read at 450 nm. Data was analyzed by normalizing Fab concentrations to the corresponding activity data (see FIGS. 12A-12J and 14).

The target in experiment [6] is T6, r murine EphA8 (mouse, UniProt O09127).
T6 construct: recombinant soluble protein coated on the plate; also called mEphA8; rEphA8
T6 sequence (receptor construct, looked up): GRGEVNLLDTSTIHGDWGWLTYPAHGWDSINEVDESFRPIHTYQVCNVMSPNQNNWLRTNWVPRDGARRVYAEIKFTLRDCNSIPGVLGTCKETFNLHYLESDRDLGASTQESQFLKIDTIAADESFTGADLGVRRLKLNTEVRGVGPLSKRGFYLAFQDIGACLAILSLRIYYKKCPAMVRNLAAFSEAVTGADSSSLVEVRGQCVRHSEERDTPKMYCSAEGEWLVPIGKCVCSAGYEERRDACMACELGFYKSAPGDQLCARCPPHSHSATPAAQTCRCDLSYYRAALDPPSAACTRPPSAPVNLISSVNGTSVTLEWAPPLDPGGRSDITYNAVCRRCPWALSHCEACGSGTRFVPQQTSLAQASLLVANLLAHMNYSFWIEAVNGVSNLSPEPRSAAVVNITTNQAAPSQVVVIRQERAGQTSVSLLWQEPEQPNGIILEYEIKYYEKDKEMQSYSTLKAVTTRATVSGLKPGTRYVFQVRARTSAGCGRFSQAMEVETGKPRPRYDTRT
Kind of experiment: Activity ELISA, receptor coated on the plate, purified IgG, anti-human kappa-HRP, OD 450 nm. How it is done: as §1

The target in experiment [7] is T7, Human EphA4-Fc fusion protein (human, UniProt P54764 20-547).
T7 construct: not shown: Fc portion of a human IgG1
T7 sequence (P54764 20-547): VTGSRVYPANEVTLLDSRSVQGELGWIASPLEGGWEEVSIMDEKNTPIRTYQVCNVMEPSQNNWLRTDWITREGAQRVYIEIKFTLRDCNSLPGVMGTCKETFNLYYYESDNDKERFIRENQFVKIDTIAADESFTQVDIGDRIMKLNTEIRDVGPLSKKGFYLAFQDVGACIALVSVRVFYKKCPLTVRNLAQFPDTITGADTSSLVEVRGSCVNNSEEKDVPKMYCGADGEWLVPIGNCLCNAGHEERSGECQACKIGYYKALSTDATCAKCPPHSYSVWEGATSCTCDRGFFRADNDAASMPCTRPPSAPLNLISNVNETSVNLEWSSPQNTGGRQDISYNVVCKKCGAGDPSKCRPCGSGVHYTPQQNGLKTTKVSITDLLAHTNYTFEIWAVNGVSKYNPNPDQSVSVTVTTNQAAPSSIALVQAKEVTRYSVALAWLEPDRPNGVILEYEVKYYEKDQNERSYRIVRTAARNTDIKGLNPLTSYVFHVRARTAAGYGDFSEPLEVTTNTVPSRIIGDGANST
Nature of the experiment: BIAcore, IgG immobilized on the sensor chip, EphA4-Fc as analyte; comment on the sheet: off-rate below LOD. As for the experimental part:
FIG. 15A-15B. […] Binding affinities were measured using the BIAcore assay. […] Variant kinetic measurements for human EphA4 and were obtained using BIAcore with immobilized variant antibodies and human EphA4-Fc and EphA4-His as analytes.
On the technique in general: In SPR one partner is held on a chip, and binding of the other changes the refractive index at the surface.

T3 sequence (Q03137 20-547 limits assumed): as the sequence (P54764 20-547) above, with P59A, N121S, V124G, R250Q, S251N, T270S, K378R, N406S counted along it
T1 sequence (Q03137 20-547 limits assumed): as the sequence (P54764 20-547) above, with P59A, N121S, V124G, R250Q, S251N, T270S, K378R, N406S counted along it

B1: 3A12 IgG1 (affinity optimized combinatorial variant of mAb GEA44 in human IgG1 format) (antibody, V domains shown)
VH: QVQLLQSGAEVKKPGASVKVPCKASGYTFTSRAMSWVRQAPGQGLEWMGWINTNTGNPTYAQGFTGRFVFSLDTSVSTAYLQISSLKAEDTAVYYCARVRFTVYGDGMDVWGQGTLVTVSS
VL: EIVLTQSPATLSVSPGERATLSCRASQSVSSNLAWYQQKPGQAPRLLIYGASTWATGIPDRFSASGSGTDFTLTISRVEPEDFAVYYCQQYGPSWTFGQGTKVEIK
One may read the Kd as the equilibrium constant for the complex coming apart. The low end stands for higher affinity, the high end for lower affinity. By koff is commonly meant the first-order rate constant of dissociation. A high value points to a short-lived complex. For orientation: kon means the second-order rate constant of association. Regarding B1, the binding result in experiment [1], in experiment [2], in experiment [3], in experiment [4], in experiment [5] and in experiment [6] was “binds” each time. The Kd in experiment [7] worked out at 6 pM. The same molecule gave a koff in experiment [7] of 8.66e-07 s⁻¹. The molecule also returned a kon in experiment [7] of 147000 M⁻¹ s⁻¹.

The values are drawn from patent US20060121042A1 (AstraZeneca / MedImmune, published 2006).
